Data from paper PMC7987032 (medRxiv, 2021).

Molecular target: SARS-CoV-2 RBD (SARS-CoV-2 (Wuhan-Hu-1), UniProt P0DTC2)
Assay: BLI

B1: CV2-75 (antibody, V domains shown)
VH: QVQLQESGPGLVKPSETLSLTCTVSGGSISSYYWSWIRQPPGKGLEWIGYVYYSGSTNYNPSLKSRVTISVDTSKNEFSLKLSSVTAADTAVYYCASSQRPDGNLYYFDYWGQGTLVTVSS
VL: SYVLTQPPSVSVAPGQTARITCGGNNIGSKTVHWYQQKPGQAPVLVVYDDSDRPSGIPERFSGSNSGNTATLTISRVEAGDEADYYCQVWDSSSDHYVFGTGTKVTVL
Does B1 bind?
Result: binds
